Results on six substances are retold here after patent US20060115482A1, “Modifications of histone proteins as indicators of cell proliferation and differentiation” (The Regents of the University of California, priority 2004, published 2006).

Bounds are passed on as bounds.

The first experiment addresses recombinant histone H2B (unphosphorylated) (Drosophila) (UniProt P02283). Particulars: scale: % of the activity determined for TFIID, TAF1 and CTK.
Turning to “CTKΔATP (CTK polypeptide lacking the ATP binding motifs) (from UniProt P51123) (enzyme)”, the kinase activity (radiolabeled H2B cut from the gel, scintillation counting) was less than 0.1.
Take “CTK(D1538A) (from UniProt P51123) (enzyme)”: the kinase activity (radiolabeled H2B cut from the gel, scintillation counting) was less than 0.1.
The same measure, in the same setting: the same measure for “CTKΔ1600 (CTK polypeptide lacking the S/T-kinase motif) (from UniProt P51123) (enzyme)”: less than 0.1.

Another experiment has as its target native nucleosomes purified from 0-6 h Drosophila embryos (H2B in nucleosomes) (Drosophila) (UniProt P02283).
Conditions: not given
“TAF1 COOH-terminal kinase domain (CTK; amino acids 1496-2132) (from UniProt P51123) (enzyme)”: the turnover value for phosphorylation of H2B-S33 (in vitro kinase assay, scintillation counting) came to 2.6 s⁻¹.
The same measure, in the same setting: the figure for “recombinant TAF1 (Flag(M2)-epitope tagged, immunopurified) (from UniProt P51123) (enzyme)” is 2.5 s⁻¹; for “TFIID (endogenous Drosophila melanogaster TFIID, immunopurified) (from UniProt P51123) (enzyme)” it is 3.3 s⁻¹.

The target of a further experiment is recombinant histone H2B (unphosphorylated) (Drosophila) (UniProt P02283).
Conditions: not given
For the substance “TAF1 COOH-terminal kinase domain (CTK; amino acids 1496-2132) (from UniProt P51123) (enzyme)”, the turnover value for phosphorylation of H2B-S33 (in vitro kinase assay, scintillation counting) came out at 4.4 s⁻¹.
Still for that read-out and setting: the figure for “recombinant TAF1 (Flag(M2)-epitope tagged, immunopurified) (from UniProt P51123) (enzyme)” is 2.5 s⁻¹.
In the case of “TFIID (endogenous Drosophila melanogaster TFIID, immunopurified) (from UniProt P51123) (enzyme)”, the turnover value for phosphorylation of H2B-S33 (in vitro kinase assay, scintillation counting) was 2.6 s⁻¹.
